The values that follow come from patent publication US20240254229A1 (Molecular Partners, published 2024).

Experiment [1] deals with T1, extracellular domain of human CD70 (SEQ ID NO: 89), hCD70-Fc-trimer, ACRO Biosystems (human, UniProt P32970 52-193, chemically biotinylated where the biotinylated form was used).
T1 construct: also called human CD70-Fc-trimer; Bio.CD70
T1 sequence: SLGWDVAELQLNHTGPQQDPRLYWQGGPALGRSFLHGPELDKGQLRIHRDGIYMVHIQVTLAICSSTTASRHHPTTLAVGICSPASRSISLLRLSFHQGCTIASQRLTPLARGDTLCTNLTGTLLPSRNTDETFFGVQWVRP
Kind of experiment: crude extract HTRF, 2 nM biotinylated hCD70. From the text: Individual selected ankyrin repeat proteins specifically binding to hCD70 in solution were identified by a Homogeneous Time Resolved Fluorescence (HTRF) assay using crude extracts of ankyrin repeat protein-expressing Escherichia coli cells using standard protocols. Ankyrin repeat protein clones selected by ribosome display were cloned into derivatives of the pQE30 (Qiagen) expression vector (pMPDV25), transformed into E. coli XL1-Blue (Stratagene), plated on LB-agar (containing 1% glucose and 50 μg/ml ampicillin) and then incubated overnight at 37° C. Single colonies were picked into a 96 well plate (each clone in a single well) containing 160 μl growth medium (TB containing 1% glucose and 50 μg/ml ampicillin) and incubated overnight at 37° C., shaking at 800 rpm. […]
(§1) The extract of each lysed clone was applied as a 1:2000 dilution (final concentration) in PBSTB (PBS supplemented with 0.1% Tween 20® and 0.2% (w/v) BSA, pH 7.4) together with 2 nM (final concentration) biotinylated hCD70, 1:400 (final concentration) of anti-strep-Tb HTRF antibody-FRET donor conjugate (Cisbio) and 1:400 (final concentration) of anti-6His-D2 antibody FRET acceptor conjugate (Cisbio) to a well of 384 well plate and incubated for 60 minutes at RT. The HTRF was read-out on a Tecan M1000 using a 340 nm excitation wavelength and a 665±10 nm emission filter. […]
In general terms: Time-resolved FRET reads energy transfer from a long-lived donor to a nearby acceptor.

Experiment [2] has as its target T2, biotinylated extracellular domains of human CD123 (uniprot ID 26951), Fc format (human, UniProt P26951 19-305, biotinylated).
T2 construct: extracellular domain
T2 sequence (looked up): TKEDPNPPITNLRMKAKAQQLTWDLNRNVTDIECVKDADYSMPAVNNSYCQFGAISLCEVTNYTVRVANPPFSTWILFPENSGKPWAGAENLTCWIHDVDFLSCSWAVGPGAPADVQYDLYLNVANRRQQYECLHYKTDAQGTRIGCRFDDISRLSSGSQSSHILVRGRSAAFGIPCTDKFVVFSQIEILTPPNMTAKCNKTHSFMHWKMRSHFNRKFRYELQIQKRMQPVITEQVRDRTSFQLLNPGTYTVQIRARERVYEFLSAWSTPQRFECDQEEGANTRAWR
Kind of experiment: crude extract HTRF, 6 nM biotinylated CD123. From the text:
(§2) Individual selected ankyrin repeat proteins specifically binding to hCD123 in solution were identified by a Homogeneous Time Resolved Fluorescence (HTRF) assay using crude extracts of ankyrin repeat protein-expressing Escherichia coli cells using standard protocols. Ankyrin repeat protein clones selected by ribosome display were cloned into derivatives of the pQE30 (Qiagen) expression vector (pMPDV045), which contains a C-terminal CD3 binding designed ankyrin repeat protein followed by a Flag tag, transformed into E. coli XL1-Blue (Stratagene), plated on LB-agar (containing 1% glucose and 50 μg/ml ampicillin) and then incubated overnight at 37° C. […]
The extract of each lysed clone was applied as a 1:500 dilution (final concentration) in PBSTB (PBS supplemented with 0.1% Tween 20® and 0.2% (w/v) BSA, pH 7.4) together with 6 nM (final concentration) biotinylated human or cyno CD123, 1:300 (final concentration) of anti-6His-D2 HTRF antibody-FRET acceptor conjugate (Cisbio) and 1:300 (final concentration) of anti-strep-Tb antibody FRET donor conjugate (Cisbio) to a well of 384 well plate and incubated for 120 minutes at RT. The HTRF was read-out on a Tecan M1000 using a 340 nm excitation wavelength and a 665±10 nm emission filter.

The target of experiment [3] is T3, biotinylated extracellular domain of human CD33 (SEQ ID NO: 87), Fc and Avi tagged (human, UniProt P20138 18-259, biotinylated with BirA-GST (Avi tag)).
T3 construct: also called hCD33; human target hCD33
Kind of experiment: crude extract HTRF, 6 nM biotinylated hCD33.
Description: as §2, with “Similarly, individual” for “Individual”, “hCD33” for “hCD123”
as §1, with “a 1:1000” for “a 1:2000”, “with 6” for “with 2”, “biotinylated hCD33 (full-length or splice variant of ECD CD33),” for “biotinylated hCD70,”

T3 sequence (P20138 18-259 R69G): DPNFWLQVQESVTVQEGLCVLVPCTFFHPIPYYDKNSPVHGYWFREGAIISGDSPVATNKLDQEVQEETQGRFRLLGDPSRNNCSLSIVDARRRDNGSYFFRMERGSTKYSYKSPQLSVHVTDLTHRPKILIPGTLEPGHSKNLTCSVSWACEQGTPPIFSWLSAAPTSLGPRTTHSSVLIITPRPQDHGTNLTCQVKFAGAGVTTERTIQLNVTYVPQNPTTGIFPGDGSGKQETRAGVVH

B1: DARPin® protein #69 (designed binder)
chain: DLGYKLLQAAYDGQDDEVRILLAAGADVNAKDSRGQTPLHYAASIGHLEIVEVLLKAGADVNAKDDHGWTPLHLAAWSGHLEIVEVLLKAGADVNAQDQEGTTPADLAAVQSHEDIAEVLQKAA
notes: CD70-specific domain; screened as crude extract (vector pMPDV25)
For B1, the binding result in experiment [1] is given as “binds”.

B2: DARPin® protein #64 (designed binder)
chain: DLGWKLLDAAEIGQDDEVRILLAAGADVNAKDKQGITPLHIAAAHGHLEIVEVLLKAGADVNAKDEIGRTPLHLAAFKGHLEIVEVLLKAGADVNAQDIIGETPADLAAVRGHEDIAEVLQKAA
notes: CD123-specific domain; screened as crude extract
For the molecule B2, in experiment [2], the binding result is listed as “binds”.

B3: DARPin® protein #63 (designed binder)
chain: DLGKKLLQAARAGQLDEVRELLKAGADVNAKDQYGRTPLHLAAIKGHLEIVEVLLKAGADVNAKDSLGYTPLHLAAVEGPLEIVEVLLKAGADVNAKDAYGQTPLHIAAAWGHLEIVEVLLKAVADVNAQDKSGKTPADLAARAGHQDIAEVLQKAA
notes: as for B2
For B3, the binding result in experiment [2] was “binds”.

B4: DARPin® protein #68 (designed binder)
chain: DLGKKLLQAARAGQLDEVRELLKAGADVNAKDQAGLTPLHIAAATGHLEIVEVLLKAGADVNAKDFSGLTPLHLAAFEGHLEIVEVLLKAGADVNAKDQHGQTPLHLAAWTGHLEIVEVLLKAGADVNAQDKSGKTPADLAARAGHQDIAEVLQKAA
notes: as for B1
In the case of B4, the binding result in experiment [1] is “binds”.

B5: DARPin® protein #37 (designed binder)
chain: DLGWKLLLAASRGQDDEVRILLAAGADVNAKDIDEGYTPLHIAAYYGHLEIVEVLLKAGADVNAKDRYGKTPLHLAAISGHEDIAEVLLKAGADVNAQDDKGDTPADLAADYGHEDIAEVLQKAA
notes: CD33-specific domain
Turning to B5, the binding result in experiment [3] is on record as “binds”.

B6: DARPin® protein #38 (designed binder)
chain: DLGVKLLRAAFHGQDDEVRILLAAGADVNAKDTDGETPLHYAAQFGHLEIVEVLLKAGADVNAKDAYGATPLHWAAWHGHLEIVEVLLKAGADVNAQDVSGATPADLAAKVGHEDIAEVLQKAA
notes: CD33-specific domain
With B6, the binding result in experiment [3] is reported as “binds”.
